Results on 21 sequences are retold here after a protein production outcome set (Wang et al. 2014).

This data set can be described thus: label from the status in PepcDB records.
“MNIPTTTTKGEQAKSQLIAAALAQFGEYGLHATTRDIAALAGQNIAAITYYFGSKEDLYLACAQWIADFLGEKFRPHAEKAERLFSQPAPDRDAIRELILLACKNMIMLLTQEDTVNLSKFISREQLSPTSAYQLVHEQVIDPLHTHLTRLVAAYTGCDANDTRMILHTHALLGEVLAFRLGKETILLRTGWPQFDEEKAELIYQTVTCHIDLILHGLTQRSLD”: the protein production entry is “not failed”.
The result for “MNIQAIDTRHGTANQHSFSNGNCLPYTGVPFGMNFYAPQTTDQKGSWWFHPEDRTFQGYRVTHQPSPWMGDFSHLLMTPVSGSLSELSLFHAQSSYRPEESLFSPVEINLTQLRYQITSQLIPSMYGGILTIDYQQKDNHLLLTLPGRYQVKQLDDHQVAVKVINYSGCEDPDFSFYFVLHFEQPLTKWFAPSSGLEHHHHHH” reads “failed”; that for “MNIQLSPLEARVIGCLIEKEVTTPDHYPLTLNSLTTACNQKSNREPVLNLSEAEVQDTVEGLIARRLVSDESSFNSRTSKYQHRFCNTEFGDLKLNQQELGLICCLLLRGAQTPGELRTRTNRLCTFTDVKETEAVLERLANRDSGALVVKLPREPGKRESRYHHLFCGEVDMAA”, “not failed”.
For the sequence “MNISKEKVVDAISMVGYFVFAYVVMELLSINKYDWMMESGDSICSIPHQPLSNRILQAGVAALLLITPLFIALARNIFIKNRYKIAYYIVGILCIALYGGWLFLGRFALC”, the protein production result is reported as “failed”.
The result for “MNISSAQFIPGVHTVEEIEAEIHKNLHISKSCSYQKVPNSHKEFTKFCYEVYNEIKISDKEFKEKRAALDTLRLCLKRISPDAELVAFGSLESGLALKNSDMDLCVLMDSRVQSDTIALQFYEELIAEGFEGKFLQRARIPIIKLTSDTKNGFGASFQCDIGFNNRLAIHNTLLLSSYTKLDARLKPMVLLVKHWAKRKQINSPYFGTLSSYGYVLMVLYYLIHVIKPPVFPNLLLSPLKQEKIVDGFDVGFDDKLEDIPPSQNYSSLGSLLHGFFRFYAYKFEPREKVVTFRRPDGYLTKQEKGWTSATEHTGSADQIIKDRYILAIEDPFEISHNVGRTVSSSGLYRIRGEFMAASRLLNSRSYPIPYDSLFEEAPIPPRRQKKTDEQSNKKLLNETDGDNS” reads “not failed”; that for “MNIVIVVFSTDEETLRKFKDIIKKNGFKVRTVRSPQELKDSIEELVKKYNATIVVVVVDDKEWAEKAIRFVKSLGAQVLIIIYDQDQNRLEEFSREVRRRGFEVRTVTSPDDFKKSLERLIREVGSLEHHHHHH”, “not failed”.
For “MNKALIVILSTVALDAIGAGLIFPILPDILVEVTGGGDIGFLYGVMLGVFAVMQFVFSPILGALSDRFGRRPVLLLSLAGTLLDYLVMAFSPLGWVLVVGRAMAGITSANMAVASAYITDITPAEQRAQRFGTVGAVMSLGFIIGPVIGGVIGAWWLRAPFLVAALFNGLNLFVALFVLPESRKAGPGKFAFKELNPLAPLVWLWNFKPLLPLVTVSVVFGLVAAIPGTIWVLYGAERFGWDSVHMGLSLSVFGVSGALAQAFLVGPLSRRFGDLGTLMIGVGFDMLAYMLMAFANQSWMGYAVAPLFALGGVAMPALQSLVTSRVSDDQQGQLQGVLASLMSLAGIIGPVLTTAVFFSTKSIWIGTIWLVGAALYLLALPLFATVKTPKAVAA”, the protein production result was “failed”.
As for “MNKFFLESERLIIRPLEESDYDSWYTSFMNRGPSLTPFDDGILDMSMCDINWFKNLVNLQRKEWESDIVYIFGVFLKSGEHVGMLNIVTLARADMQWGELGYVFHNQFWSNGYAFESILALLNSTYEKLGFHHIEAQITPGNERSEKLVRRLGLTYETTRKDFSFENGKWTDKLIYSINLHNNNLE”, the protein production entry is recorded as “failed”.
Turning to “MNKGFILKALFLLCFLFSQTAQGQSFTPGEIWPDNHQVHINAHGGGILYENGTYYWFGEHKTEGEAGNLANVGVHCYSSDDLYHWKDCGIALSVIENDPGHPISKGCILERPKVIYNPLTKKYVMWFHLEPKGAGYSGALSGIALSDRVTGPYTFLKAVRPNAGSWPINVLPIHKTTRRPSAEEERQCTGGSLPAHPDSLNILGRDMEQGQMARDMNLFVDDDGKAYHIYSSEENSTLHIAELDPTYTGYTGKYIRVFINRFMEAPAMFKKDGNYYLIMSGCSGWNPNAARSAIASSIWGEWKELGNPCIGQDADLTFHSQSTYILPVQGKKNQFIYMGDRWTPQNAIDGRYIWLPIHFEGPKPIIEWKDSWTLD”, the protein production result was “failed”.
As for “MNKKNVELLVAIGEVYLKAGKLPEAQEYAALAKKVNGKSALASVLEGDIAFEQKNAGLASQKYEEAIYFDPSCTEAYLRYADIYKSANAALAIEKLEQLKAQEPSNTAVDKKLAEIYYLKNDFSKAAEAYSRFAMGPTATEEDLVKYAFALFLNHDFEKSLEVANMGLKKNARHAAFNRLAMYNYTDLKRFDEAIKAADAFFTESDKADYSYLDYMYYGHLLEALKKYDEAVGQYEKAIQLDPTKTDLYKNISSAYEQKNDYKKAISAYQKYYTSLDKEHQTPDLEHHHHHH”, the protein production entry was “failed”.
In the case of “MNKMIILLVIAIIFLHMCLIWLWYRYTNNPSVVDVGWASGLTLAGLIYLNNQEFSLRSLLLVLALLTWGIRLGGYLWWTRIRLKKIDKRYLALSNDWKLAKPLGFFLNFQLQGVLICLVSIPWYFSSSETQTALNLLDGLALIIFLTALILETVADNQLQDFKKNYPGKVCNQKLWRYCRHPNYFYEWLVWCSFTLFALSAPYGWIAIISPLTLYLIMTKITAPMTEQGSIESRGNLYIEYQKVTPMFFPKWLKNNSTPRK”, the protein production result is “failed”.
The result for “MNKNLSEKMKIAFDIKLKNFGNKIEFAYPNQTLALSTTSNQCSLKCAHCNGHYLNNMVPIEEYEEKVQSRNITSFLLSGGCSYEGDVPINTHINTIKNLKEQGYRLNAHLGLMDKDSIVELCKYLDIVSFDLVFDDETIREVYKMKKSKEDYIEVYNTIQEHTEVAPHICIGLKGGQIKGEYEIIEYLQKNPPNKLTFIVLIPTKGTEYENVEPPELEGVADILCEARINLPDTEINLGCMRPRGVYRKELDQLSIMCGVNRIVLPSRSAKNKAIEMNMTINECKECCVL” reads “failed”; that for “MNKQSAAVLMVMGSALSLQFGAAIGTQLFPLNGPWAVTSLRLFIAGLIMCLVIRPRLRSWTKKQWIAVLLLGLSLGGMNSLFYASIELIPLGTAVTIEFLGPLIFSAVLARTLKNGLCVALAFLGMALLGIDSLSGETLDPLGVIFAAVAGIFWVCYILASKKIGQLIPGTSGLAVALIIGAVAVFPLGATHMGPIFQTPTLLILALGTALLGSLIPYSLELSALRRLPAPIFSILLSLEPAFAAAVGWILLDQTPTALKWAAIILVIAASIGVTWEPKKMLVDAPLHSKCNAKRRVHTPS”, “failed”; that for “MNKRNTQQRRHSIISILNEQGEVSVDELSLRFETSEVTIRKDLAELEKTGLLLRRYGGAVAIPDEVTQQFSAKIAPNKLSIAKAAAQLIKDHNRIIIDSGTTTSGLIAELNQKRGLVVMTNALHLANAIHELENEPTLLMTGGTWDPHSESFQGQVAEQVLRSYNFDQLFIGADGIDLARGTTTFNELTGLSKVMAEVSREVIVMVDSDKIGKRIPNLELPWSKISVLVTDARIEESALKQITEQGVKVILAPYSP”, “failed”.
The result for “MNKRVQAFLAKMQEKELDGIIINNLKNVYYLTGFWGSNGTVFISRDRQVLVTDSRYIIAAKQETSGFEIVADRDELAVIAGIVKDMGLTRIGFEDEISVSYYHRMQAAFAGLNLLPQTQFVEGLRMIK” reads “failed”.
For “MNKTELIKNVAQNAEISQKEATVVVQTVVESITNTLAAGEKVQLIGFGTFEVRERAARTGRNPQTGEEMQIAASKVPAFKAGKELKEAVK”, the protein production entry is recorded as “not failed”.
The result for “MNKWAILSLACVPYALLTIVNEDTLEIGGSANIFWKIGLFAPLIGVLFSAGASKTYQRVMLALFNLSYYFVLYIYMIYTF” reads “failed”; that for “MNLAQSNREIVELLVPIIVGYMSLFISSIFVYRIGKIILRRDSISLISAIIFLLNPSTIFCLLYSPKNYGFASVGYYFVPLLYLMSYYYYLKKDWKKFTAFTVALTLTSPLSYLIAITFIVYLLIRNRIDEKSLSWSLLRENKISLVLILVSLIIGVLVIPQTLQHFSSLLIASIYPQYTSLNYIYDNVYFKLTYWFILFGVFSFLPIFSPLELIPALPYLLVGLFSSYIPYYSYGYYPYYFLALPMLIMGFIRTINLIKDDKRTMLISYVFIFLFNVALLYVILE”, “failed”; that for “MNLASQSGEAGAGQLLFANFNQDNTEVKGASRAAGLGRRAVVWSLAVGSKSGYKFFSLSSVDKLEQIYECTDTEDVCIVERLFSSSLVAIVSLKAPRKLKVCHFKKGTEICNYSYSNTILAVKLNRQRLIVCLEESLYIHNIRDMKVLHTIRETPPNPAGLCALSINNDNCYLAYPGSATIGEVQVFDTINLRAANMIPAHDSPLAALAFDASGTKLATASEKGTVIRVFSIPEGQKLFEFRRGVKRCVSICSLAFSMDGMFLSASSNTETVHIFKLETVKEKPPEEPTTWTGYFGKVLMASTSYLPSQVTEMFNQGRAFATVRLPFCGHKNICSLATIQKIPRLLVGAADGYLYMYNLDPQEGGECALMKQHRLDGSLETTNEILDSASHDCPLVTQTYGAAAGKGTYVPSSPTRLAYTDDLGAVGGACLEDEASALRLDEDSEHPPMILRTD”, “failed”.
The result for “MNLDTPLADGLERAKRFEQGLQQVVLGQERPIRLLTLAVFARGHALLEGGVGVGKTTLLRAVARGIGGDYERIEGTIDLMPNDLVYYTYLDEQGRPGVAPGPLLKHGEQLSIFFFNEINRARPQVHSLLLRVMAERSVSAFNREYRFPYLQVFADRNRVEKEETFELPAAARDRFMLEIAIEPPADPAHIDQILFDPRFYDPDRLVASAPADTLSFRELNGIAEALQGGIHVSARLRSYVQDLWRATRRPEDFGIALHEADSGDMIEAGSSPRGMSYLVRLARVQAWLSGRDRVEPEDVQYVFAPAVGHRIFLKPVYEYRRAELIPELVGKLIRRIAAPLEHHHHHH” reads “failed”.
The value for “MNLLPGFAYIEMESISNLTPLVMKTLAGFIAGIPKAELHLHIEGTLEPEMMLALGERNGVPLPYPDADAAKSAYHFSDLQSFLDIYYRATAVLVTEQDFYDLTIAYLQKAVSRKVCHAEIFFDPQSHIARGVPFETVVGGIGQALSDANGGLGISTKLIMCILRHLSEEDGNAVLEQAVRWKRWISGIGLDSSEKGNPPGKFRELFAKARHYGFFTVAHAGEEGNASSISEALDALHVIRIDHGVHCMEDPVLVERLRLDRIPLTICPLSNVRLNVFGSMREHNLKTMLDAGLCVTINSDDPAYFGGYVNENYLAAAEALNLDRNDIIRLARNSFEASVLSNVQKKLYLQKLDHYVDSFIQ” was “failed”.
